Data published in patent US11994512B2, “Single-cell genomic methods to generate ex vivo cell systems that recapitulate in vivo biology with improved fidelity” (Massachusetts Institute of Technology, priority 2018, dated 2024).

B1: Q8K4B2 (protein, UniProt Q8K4B2 1-609, looked up)
chain: MAGRCGARGALSPQLLLFDLPPALLGELCGILDSCDGPLGWRGLAERLSNSWLDVRHIEKYVNQGKSGTRELLWSWAQKNKTIGDLLEVLQDMGHQRAIHLIINYGVSWTPSVQTHHELPFPSFPPEVKHACRENDPGPLEPANVTVDNVLVPEHNEKGTLQKTPISFQSILEGTKHFHKDFLIGEGEIFEVYRVDIRNQAYAVKLFKQEKKMQLKKHWKRFLSELEVLLLFRHPHILELAAYFTETEKLCLVYPYMSNGTLFDRLQCTNGTTPLSWHVRISVLIGIAKAIQYLHNTQPCAVICGNVSSANILLDDQLQPKLTDFAAAHFRPNLEQQSSTINMTGGGRKHLWYMPEEYIRQGRLSVKTDVYSFGIVIMEVLTGCKVVLDDPKHVQLRDLLMELMEKRGLDSCLSFLDRKIPPCPRNFSAKLFSLAGRCVATKAKLRPTMDEVLSSLESTQPSLYFAEDPPTSLKSFRCPSPLFLDNVPSIPVEDDENQNNHSVPPKEVLGTDRVTQKTPFECSQSEVTFLGLDRNRGNRGSEADCNVPSSSHEECWSPELVAPSQDLSPTVISLGSSWEVPGHSYGSKPMEKRCSSGLFCSEHEQSKKQ
modifications: full-length
B2: Q8CIV3 (protein, UniProt Q8CIV3 1-451, looked up)
chain: MLRLCFFISFMCLVKSDTDETCPSFTRLSFHSAVVGTGLSVRLMLYTQRDQTCAQIINSTALGSLNVTKKTTFIIHGFRPTGSPPVWIEELVQSLISVQEMNVVVVDWNRGATTVIYPHASSKTRQVASILKEFIDQMLVKGASLDNIYMIGVSLGAHIAGFVGESYEGKLGRVTGLDPAGPLFNGRPPEERLDPSDALFVDVIHSDTDALGYKEALGHIDFYPNGGLDQPGCPKTIFGGIKYFKCDHQMSVYLYLASLQNNCSITAYPCDSYRDYRNGKCVSCGAGQIVPCPRVGYYADSWKEYLWDRDPPMTKAFFDTAETKPYCMYHYFVDIVSWNKSVRRGFITIKLRGEDGNITESKIDHEPSAFEKYHQVSLLARFNRDLDKVAEISLLFSTGSVVGPKYKLRVLQMKLRSLAHPDRPHLCRYDLVLMENVETSFQPILCSQQQM
modifications: full-length
B3: Q8K023 (protein, UniProt Q8K023 1-323, looked up)
chain: MNSKIQKIELNDGHSIPVLGFGTYATEEHLKKKSMESTKIAIDVGFCHIDCSHLYQNEEEIGQAILSKIEDGTVKREDIFYTSKLWSTSHRPELVRPSLENSLRKLNLDYVDLYLIHFPVSLKPGNELLPKDEHGNLIFDTVDLCDTWEAMEKCKDAGLAKSIGVSNFNRRQLEMILNKPGLKYKPVCNQVECHLYLNQSKLLAYCKMNDIVLVAYGALGTQRYKYCINEDTPVLLDDPVLCAMAKKYKRTPALIALRYQLDRGIVALAKSFNEERIRENMQVFDFQLASDDMKILDGLDRNLRYFPADMFKAHPNFPFFDEY
modifications: full-length
B4: Q8VCI0 (protein, UniProt Q8VCI0 1-550, looked up)
chain: MCHRSPGRSLRPPSPLLLLLPLLLQPPWAAGAASQSDPTGVHCATAYWSPESKKVEIKTVLDKNGDAYGYYNDSIKTTGWGILEIRAGYGSQVLSNEIIMFLAGYLEGYLTALHMYDHFTNLYPQLIKNPSIVKKVQDFMEKQEMWTRQNIKAQKDDPFWRHTGYVVTQLDGLYLGAQKRASEEKIKPMTMFQIQFLNAVGDLLDLIPSLSPTKSSSMMKFKIWEMGHCSALIKVLPGFENIYFAHSSWYTYAAMLRIYKHWDFNIKDKYTLSKRLSFSSYPGFLESLDDFYILSSGLILLQTTNSVYNKTLLKQVVPKTLLAWQRVRVANMMAEGGKEWAQIFSKHNSGTYNNQYMVLDLKKVTINRSLDKGTLYIVEQIPTYVEYSDQTNVLRKGYWASYNIPFHKTIYNWSGYPLLVHKLGLDYSYDLAPRAKIFRRDQGNVTDMASMKYIMRYNNYKEDPYSKGDPCSTICCREDLNGASPSPGGCYDTKVADIFLASQYKAYAISGPTVQDGLPPFNWNRFNETLHRGMPEVFDFNFVTMKPILS
modifications: full-length
B5: Q8K4R4 (protein, UniProt Q8K4R4 1-332, looked up)
chain: MLLKEYRICMPLTVDEYKIGQLYMISKHSHEQSDRGEGVEVVQNEPFEDPHHGNGQFTEKRVYLNSKLPSWARAVVPKIFYVTEKAWNYYPYTITEYTCSFLPKFSIHIETKYEDNKGSNDSIFDSEAKDLEREVCFIDIACDEIPERYYKESEDPKHFKSEKTGRGQLREGWRDNHQPIMCSYKLVTVKFEVWGLQTRVEQFVHKVVRDILLIGHRQAFAWVDEWYDMTMDEVREFERATQEATNKKIGVFPPAISISSIALLPSSVRSAPSSAPSTPLSTDAPEFLSIPKDRPRKKSAPETLTLPDPEKKATLNLPGVYTSEKPCRPKSE
modifications: full-length
B6: Q8K354 (protein, UniProt Q8K354 1-277, looked up)
chain: MSSCSRVALVTGANKGIGFAITRDLCRKFSGDVVLTARDEARGRAAVQQLQAEGLSPRFHQLDIDDPQSIRALRDFLRKEYGGLNVLVNNAGIAFRMDDPTPFDIQAEVTLKTNFFATRNVCTELLPIMKPHGRVVNISSLQGLKALENCREDLQEKFRCDTLTEVDLVDLMKKFVEDTKNEVHEREGWPDSAYGVSKLGVTVLTRILARQLDEKRKADRILLNACCPGWVKTDMARDQGSRTVEEGAETPVYLALLPPDATEPHGQLVRDKVVQTW
modifications: full-length
B7: Q8VCT4 (protein, UniProt Q8VCT4 1-565, looked up)
chain: MGLYPLIWLSLAACTAWGYPSSPPVVNTVKGKVLGKYVNLEGFTQPVAVFLGVPFAKPPLGSLRFAPPQPAEPWSFVKNTTSYPPMCSQDAVGGQVLSELFTNRKENIPLQFSEDCLYLNIYTPADLTKNSRLPVMVWIHGGGLVVGGASTYDGLALSAHENVVVVTIQYRLGIWGFFSTGDEHSRGNWGHLDQVAALRWVQDNIANFGGNPGSVTIFGESAGGFSVSVLVLSPLAKNLFHRAISESGVSLTAALITTDVKPIAGLVATLSGCKTTTSAVMVHCLRQKTEDELLETSLKLNLFKLDLLGNPKESYPFLPTVIDGVVLPKAPEEILAEKSFSTVPYIVGINKQEFGWIIPTLMGYPLAEGKLDQKTANSLLWKSYPTLKISENMIPVVAEKYLGGTDDLTKKKDLFQDLMADVVFGVPSVIVSRSHRDAGASTYMYEFEYRPSFVSAMRPKAVIGDHGDEIFSVFGSPFLKDGASEEETNLSKMVMKFWANFARNGNPNGGGLPHWPEYDQKEGYLKIGASTQAAQRLKDKEVSFWAELRAKESAQRPSHREHVEL
modifications: full-length
B8: Q8R550 (protein, UniProt Q8R550 1-709, looked up)
chain: MVEAIVEFDYQAQHDDELTISVGEVITNIRKEDGGWWEGQINGRRGLFPDNFVREIKKDMKKDLLSNKAPEKPMHDVSSGNALLSSETILRTNKRGERRRRRCQVAFSYLPQNDDELELKVGDIIEVVGEVEEGWWEGVLNGKTGMFPSNFIKELSGESDELGISQDEQLSKSRPEGFLPASLLPFPAHGAKGKTTFEGTILYRAAPGKTEGHRRYYSLRETTGSESDGGDSSSTKSEGANGTMATAAIQPKKVKGVGFGDIFKDKPIKLRPRSIEVENDFLPVEKTIGKKLPPATSTPDPSKTEMDSRTKTKDYCKVIFPYEAQNDDELTIKEGDIVTLINKDCIDVGWWEGELNGRRGVFPDNFVKLLPSDFDKEGNRPKKPPPPSAPVVKQGAGTTERKHEIKKIPPERPETLPNRTEEKERPEREPKLDLQKPSVPAIPPKKPRPPKTNSLNRPGALPPRRPERPVGPLTHTRGDSPKIDLAGSALSGILDKDLSDRSNDIDLEGFDSVISSTEKLSHPTTSRPKATGRRPPSQSLTSSSLSSPDIFDSPSPEEDKEEHISLAHRGIDVSKKTSKTVTISQVSDNKTSLPPKPGTMAAASSGPASLSSVASSPMSSSLGTAGQRASSPSLFSTEGKPKMEPAVSSQAAIEELKMQVRELRTIIETMKDQQKREIKQLLSELDEEKKIRLRLQMEVNDIKKALQSK
modifications: full-length

Test system: intracellular proteome of ENR+CD and ENR organoids
Assay: LC-MS/MS TMT proteomics of ENR+CD versus ENR organoids
Format: cell-based, C57BL/6 mice
Settings: for Average logFC: ENR+CD versus ENR organoids, sample pairs in aggregate (n=4, 2 technical replicates from two biological donors); for M1-1 Log2 Median Normalized / M1-2 Log2 Median Normalized / M2-1 Log2 Median Normalized / M2-2 Log2 Median Normalized: protein abundance ratio ENR+CD versus ENR organoids, LC-MS/MS TMT proteomics; for M1-1 Log2 Median Normalized: sample pair M1-1; for M1-2 Log2 Median Normalized: sample pair M1-2; for M2-1 Log2 Median Normalized: sample pair M2-1; for M2-2 Log2 Median Normalized: sample pair M2-2; for change: up = enriched in ENR+CD, down = enriched in ENR, FDR<0.05 and log fold change cut-off

Molecule | Average logFC | M1-1 Log2 Median Normalized | M1-2 Log2 Median Normalized | M2-1 Log2 Median Normalized | M2-2 Log2 Median Normalized | change
B1 | 1.198 | 1.448 | 0.943 | 1.1955 | 1.204 | up
B2 | 1.179 | 1.6 | 0.988 | 0.9025 | 1.225 | up
B3 | −1.451 | −1.063 | −0.99 | −1.9945 | −1.758 | down
B4 | −1.188 | −1.187 | −1.193 | −1.4105 | −0.754 | down
B5 | 1.235 | 1.072 | 0.913 | 1.6335 | 1.321 | up
B6 | −1.221 | −1.154 | −1.435 | −1.8555 | −0.441 | down
B7 | −1.924 | −1.923 | −1.965 | −2.3285 | −1.001 | down
B8 | 1.492 | 1.738 | 1.082 | 1.8435 | 1.303 | up
